Reference: publication PMC3120127

How the values were obtained:
Experiment in all cases: split reporter
[1] = molecular target: N-FLUC-PfMyb2 fragment #13 (P. falciparum)
[2] = molecular target: N-FLUC-PFE1350c (amino acids 9-135) (P. falciparum)
[3] = molecular target: N-FLUC negative control (firefly)

Row | Substance | fold luciferase signal over the N-FLUC fusion plus the C-FLUC negative control [1] | fold luciferase signal over N-FLUC-PFE1350c plus the C-FLUC negative control [2] | fold luciferase signal over N-FLUC-PFE1350c plus the C-FLUC negative control [3] | fold luciferase signal over the N-FLUC fusion plus the C-FLUC negative control [2]
1 | PFC0365w-C-FLUC (amino acids 45-205) (domain or fragment) | 36 fold | < 2.3 fold | – | –
2 | PFL1705w-C-FLUC (amino acids 95-213) (domain or fragment) | – | < 2.3 fold | – | –
3 | PFC0255c-C-FLUC (amino acids 4-137) (domain or fragment) | – | – | < 2.3 fold | > 600 fold
